Measured values published in paper PMC3858555.

Biological target: CIN85 of MDCK cells (dog (endogenous in MDCK))
Experiment: co-IP; whole cell lysates (RIPA), 500 μg; precipitated with anti-CIN85 antibody, blotted with anti-MUC1 (3C6, Ab5) or anti-Tac; washed with RIPA containing 0.5 M NaCl, 2% SDS; control unrelated IgG; intensity by Image J

With “full-length MUC1 containing 22 tandem repeats in the VNTR domain (natural protein)” the fold co-precipitation against the construct lacking the cytoplasmic tail (22TR-Tac) was 1.9 fold and the fold co-precipitation against the construct lacking the extracellular domain (Tac-CT) was 2.4 fold.
